The record followed here is publication PMC10673654, “MdAIL5 overexpression promotes apple adventitious shoot regeneration by regulating hormone signaling and activating the expression of shoot development-related genes”.

This data set concerns the target T1, MdAIL5 (Malus domestica (apple)?, UniProt A0A678R5P4 1-555).
T1 sequence: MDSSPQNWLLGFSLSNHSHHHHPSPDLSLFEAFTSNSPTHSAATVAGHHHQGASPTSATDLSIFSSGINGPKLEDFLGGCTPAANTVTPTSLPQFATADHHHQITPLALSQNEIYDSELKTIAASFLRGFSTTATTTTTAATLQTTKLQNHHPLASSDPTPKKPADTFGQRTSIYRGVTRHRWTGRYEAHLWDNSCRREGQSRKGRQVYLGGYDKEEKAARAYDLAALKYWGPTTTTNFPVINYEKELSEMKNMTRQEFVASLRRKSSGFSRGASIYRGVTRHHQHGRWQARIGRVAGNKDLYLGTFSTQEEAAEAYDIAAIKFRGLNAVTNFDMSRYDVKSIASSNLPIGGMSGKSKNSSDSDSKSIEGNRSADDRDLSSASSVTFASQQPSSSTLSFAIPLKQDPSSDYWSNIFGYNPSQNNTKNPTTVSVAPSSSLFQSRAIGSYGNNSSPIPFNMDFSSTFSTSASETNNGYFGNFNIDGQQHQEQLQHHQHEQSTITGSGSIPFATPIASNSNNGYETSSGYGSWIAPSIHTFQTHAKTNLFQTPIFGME
As to the kind of experiment: EMSA; LightShift Chemiluminescent EMSA Kit per manufacturer; buffer, salt, pH and temperature not stated. To be noted: protein: recombinant; tags: GST (N-terminal, pGEX-4T-1); cold version unlabeled; blunt.

B1: Probe with CACGCATCCCGAAG (Table S1: MdHB14pro; text and Fig. 6d: MdARF9 promoter) (dsDNA)
DNA 1: CGTTACACCAAACCACACGCATCCCGAAGCGCCGTTCACGTCAA
DNA 2: TTGACGTGAACGGCGCTTCGGGATGCGTGTGGTTTGGTGTAACG
B1: the binding result is “binds”.

B2: Probe with CACAATTGCCTATG (Table S1: MdARF9pro; text and Fig. 6e: MdHB14 promoter) (dsDNA)
DNA 1: TGGGCTATTACATCCCACAATTGCCTATGAGTGGCCAATTTTTCCT
DNA 2: AGGAAAAATTGGCCACTCATAGGCAATTGTGGGATGTAATAGCCCA
Take B2: the binding result is “binds”.
